Measurements reported in the supplement of paper PMC10567573.
± gives the standard deviation.

Experiment: protein stability index of a GFP-peptide fusion (GPS, HEK-293T) (PSI 1-6); higher = more stable
[1] = treatment: DMSO, c terminus: a fixed tail appended
[2] = treatment: MLN4924 1 uM, 8 h, c terminus: a fixed tail appended
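Also: 24-mer peptide tiles fused after GFP, lentivirally expressed, FACS-sorted into six equal bins by GFP/DsRed ratio, decoded by Illumina sequencing, PSI is the read-weighted mean bin number.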

Row | Sequence | protein stability index [1] | protein stability index [2] | protein stability index (treatment: DMSO, c terminus: native) | protein stability index (treatment: MLN4924 1 uM, 8 h, c terminus: native)
1 | IRHQRIHTGEKPYTCHECGDSFSH [ZNF263] | 2.62 ± 0.4 | 2.7 ± 0.36 |  | 
2 | LIKNNSLPRKRQSLRSSSSKLAQL [INTS3] | 2.99 ± 0.27 | 3.31 ± 0.17 |  | 
3 | PAEQAFWCLVQICEKYLPGYYSEK [TBC1D10A] | 3.37 ± 0.55 | 3.46 ± 0.48 |  | 
4 | CQVGGIEALVRTVLRAGDREDITE [CTNNB1] | 3.28 ± 0.46 | 3.21 ± 0.46 |  | 
5 | GLPAQQVGPWLGQLQELLHHCDDH [RSAD1] | 3.6 ± 0.34 | 3.61 ± 0.29 |  | 
6 | NHAIDIICGFLKERCFRGSSYPVC [OAS1] | 2.88 ± 0.38 | 2.6 ± 0.44 |  | 
7 | RNSLSAIFNNVMTLCAMLPLLLFT [SLC29A1] | 3.3 ± 0.65 | 3.33 ± 0.22 |  | 
8 | SLAGALGVKFVGLFIILQVGLNTI [POMT2] | 3.27 ± 0.16 | 3.16 ± 1.2 |  | 
9 | WHEIRQGRLPRIPQVLSQEFTELL [WEE1] | 2.42 ± 0.22 | 2.38 ± 0.23 |  | 
10 | CREPSPKMDFKTNILLKNLVTIAR [TRIM43] | 2.8 ± 0.59 | 2.35 ± 0.49 |  | 
11 | HDGKNQPGVAYPAFLGPDEAFALP [SPSB4] | 4.12 ± 0.3 | 4.06 ± 0.21 |  | 
12 | DHMREAGDVCYADVYRDGTGVVEF [SRSF1] | 3.15 ± 0.28 | 3.18 ± 0.23 |  | 
13 | LALKLPDGSYALNGEYTLMPSPTD [ADAMTS4] | 2.35 ± 0.15 | 2.41 ± 0.28 |  | 
14 | KEIAKNLIQPINHTTLQCLAARVI [FEM1C] | 2.33 ± 0.5 | 2.33 ± 0.47 |  | 
15 | VVIRDIDERAMELLIDFAYTSQIT [KLHL20] | 3.19 ± 0.55 | 2.67 ± 0.57 |  | 
16 | GWETRGDRKARKPLVEKKRRARIN [HES6] | 4.31 ± 0.36 | 4.54 ± 0.12 |  | 
17 | FGASAAGGLSPVTNLTVTMDQLQG [CDC25A] | 3.65 ± 0.27 | 3.7 ± 0.46 |  | 
18 | SGMVTIITGLPLDNPSVLSGPMQA [SMG5] | 2.32 ± 0.35 | 2.14 ± 0.39 |  | 
19 | EDSYRKQVEVDAQQCMLEILDTAG [RAP1B] | 4.62 ± 0.13 | 4.5 ± 0.14 |  | 
20 | KLAVFMWLMTYVGAVFNGITLLIL [RTN3] | 2.97 ± 0.23 | 3.21 ± 0.39 |  | 
21 | AGADLKERAKMSSSEVGPFVSKIR [AUH] | 3.21 ± 0.21 | 4.069 ± 0.006 |  | 
22 | GPALPNGPLLGTNGATDDSKTNLI [ELAVL3] | 4.99 ± 0.17 | 4.93 ± 0.33 |  | 
23 | SMAAVPTLELCHDELFADLFNSNH [CEBPD] | 3.57 ± 0.3 | 3.6 ± 0.26 |  | 

Row | Sequence | protein stability index [1] | protein stability index [2] | protein stability index (treatment: DMSO, c terminus: native) | protein stability index (treatment: MLN4924 1 uM, 8 h, c terminus: native)
24 | YTRIWSLHDARLLRTIPSPYPASK [DCAF4] | 2.46 ± 0.48 | 2.87 ± 0.17 |  | 
25 | ACGIVSGKYDSGIPPYSRASLKGY [KCNAB2] | 2.35 ± 0.21 | 2.2 ± 0.12 |  | 
26 | ERWLKELRDHADSNIVIMLVGNKS [RAB11A] | 2.32 ± 0.29 | 2.26 ± 0.34 |  | 
27 | ESSSDSGSSDSEEERATRLAELQE [BRD3] | 5.5 ± 0.25 | 5.51 ± 0.063 |  | 
28 | PAPSPHEEPCSPGLLQDQGSGLSS [CBY2] | 5.31 ± 0.22 | 5.194 ± 0.04 |  | 
29 | DLVLDEEGARAAGLGELGAALLQL [ESRRA] | 3.94 ± 0.19 | 4.05 ± 0.17 |  | 
30 | MPGFPDNIRPSSSGGYWVGMSTIR [APMAP] | 2.87 ± 0.38 | 2.9 ± 0.42 |  | 
31 | TDQPPLVQAIFSGDPEEIRMLIHK [ANKRD44] | 3.31 ± 0.28 | 3.48 ± 0.3 |  | 
32 | YSWNNRCMVEIVQKYDPDKDEWHK [KLHL13] | 2.84 ± 0.42 | 2.86 ± 0.25 |  | 
33 | DSLAKEIQYLKDLIEEVRKARGKK [ATF4] | 2.25 ± 0.31 | 2.14 ± 0.44 |  | 
34 | AFWSLVTLGSSFIPGEHFWLLLLT [SPNS1] | 2.85 ± 1.5 | 2.91 ± 1.1 |  | 
35 | DNAVKNHWNSTIKRKVDTGGFLSE [MYBL2] | 3.87 ± 0.2 | 3.71 ± 0.14 |  | 
36 | TLGREVMSPLQAMSSYTVAGRNVL [NLN] | 3.1 ± 0.2 | 3.01 ± 0.34 |  | 
37 | ERQCALRVFKARIYTNRYETNEED [FBXO39] | 3.54 ± 0.36 | 3.61 ± 0.41 |  | 
38 | GADYPVDGLPDLGHAQDLMDGLPP [CTNNB1] | 4.95 ± 0.24 | 5.17 ± 0.068 |  | 
39 | SYSTQASAAAATAELLKKQEELNR [SCAMP3] | 4.99 ± 0.19 | 5.03 ± 0.11 |  | 
40 | GLSHSHDLSMDGLFGTIAYLPPER [RIPK4] | 3.28 ± 0.32 | 3.42 ± 0.25 |  | 
41 | HDCAESGSLDIMKMLLMYCAKMEK [FEM1C] | 2.16 ± 0.3 | 2.13 ± 0.22 |  | 
42 | AGIREAKAKQEKVSAQYLSEIEMA [FLOT1] | 4.63 ± 0.33 | 4.75 ± 0.14 |  | 
43 | ESLPVSLGPESWQQIAMDPEEVKS [BCL2L13] | 5.39 ± 0.21 | 5.27 ± 0.31 |  | 
44 | QVAMPYQWEYPYLLSILPSLLGLL [JAGN1] | 2.8 ± 0.36 | 2.85 ± 0.64 |  | 
45 | RVRLDSELRNVQDVVEDYKKRYEE [KRT71] | 4.81 ± 0.28 | 4.97 ± 0.32 |  | 
46 | IYCGAGVQKDHENYMKILLKVGGI [PCMTD1] | 2.26 ± 0.17 | 2.25 ± 0.44 |  | 

Row | Sequence | protein stability index [1] | protein stability index [2] | protein stability index (treatment: DMSO, c terminus: native) | protein stability index (treatment: MLN4924 1 uM, 8 h, c terminus: native)
47 | MGQTALAGGSSSTPTPQALYPDLS [SPSB2] | 4.46 ± 0.37 | 4.66 ± 0.37 |  | 
48 | QMMPYMQPVMQSDRTAIRSDTTHL [KLHL13] | 3.5 ± 0.24 | 3.5 ± 0.23 |  | 
49 | ENITTVSVIKDHHTRSITSCCFDP [WDR88] | 3.55 ± 0.28 | 3.78 ± 0.16 |  | 
50 | DQLYRRKKDNHALVRETDELRRNH [ELOA2] | 4.53 ± 0.42 | 4.48 ± 0.43 |  | 
51 | QAGPEATTSDPQDLDMKKHRCKCC [PALM] | 5.06 ± 0.3 | 5.17 ± 0.11 |  | 
52 | ALSDAEFEGEGDYEEGMYADWWQE [P3H4] | 4.97 ± 0.23 | 5.15 ± 0.17 |  | 
53 | GMRYAFIGPLETMHLNAEGMLSYC [CRYL1] | 2.56 ± 0.62 | 2.72 ± 0.74 |  | 
54 | SRSSILVQHQRVHTGEKPYKCLEC [ZNF24] | 3.54 ± 0.19 | 3.65 ± 0.23 |  | 
55 | ELDIPQSVQQNGSIYIHVYFTKSG [CLPTM1] | 2.3 ± 0.57 | 2.85 ± 0.67 |  | 
56 | EVITAAEFHPHHCNTFVYSSSKGT [PPP2R2B] | 3.28 ± 0.3 | 3.35 ± 0.56 |  | 
57 | DVCSFPNALVTKLLLDCGAEVNAV [FEM1B] | 2.48 ± 0.83 | 2.44 ± 0.48 |  | 
58 | HENAVQGSAVEVQTYQPPWKALSE [ISL2] | 4.15 ± 0.23 | 4.02 ± 0.17 |  | 
59 | PDVRPPLGRGLVGGQEEASQEAGL [SEPHS2] | 5.27 ± 0.14 | 5.31 ± 0.18 |  | 
60 | LRRESTSQKEMDKAETKTKKAAES [FCHO1] | 5.45 ± 0.28 | 5.46 ± 0.13 |  | 
61 | THSRMGSIMSTGIVQGSSGAQGSG [CARM1] | 4.48 ± 0.1 | 4.26 ± 0.34 |  | 
62 | DITDDCICDLARSIDFNKDGHIDI [PPEF2] | 3.87 ± 0.19 | 4.05 ± 0.39 |  | 
63 | GPAGHSKGELAPELGEEPQPRDEE [POLD4] | 5.41 ± 0.23 | 5.43 ± 0.15 |  | 
64 | PRVRELLLDALSPEQLVLTLLEAE [ESR2] | 2.22 ± 0.22 | 2.22 ± 0.26 |  | 
65 | VDIVTGHARLSDIWAKTPPITRKA [DHCR7] | 3.26 ± 0.093 | 3.38 ± 0.16 |  | 
66 | FVELQGFLAAEQDIREEIRKVVQS [TSN] | 2.21 ± 0.41 | 2.48 ± 0.82 |  | 
67 | RADFVLAANSYDLAIKAITSSAKV [FKBP8] | 2.72 ± 0.18 | 2.84 ± 0.3 |  | 
68 | YYLHPLPAGAEYCSSARHPAWGHC [SCNN1D] | 2.12 ± 0.2 | 2.21 ± 0.12 |  | 
69 | DSSTSPKGKQPTSAENSVAKKEDK [NANOGP8] | 5.57 ± 0.36 | 5.58 ± 0.19 |  | 

Row | Sequence | protein stability index [1] | protein stability index [2] | protein stability index (treatment: DMSO, c terminus: native) | protein stability index (treatment: MLN4924 1 uM, 8 h, c terminus: native)
70 | PESLNSPVSGKAVFMEFGPPNQQM [DLX1] | 3.79 ± 0.33 | 3.92 ± 0.26 |  | 
71 | WAIPNRQINDGMGGDGDDMEIFME [BEX3] | 4.31 ± 0.3 | 4.22 ± 0.26 |  | 
72 | HIRHLGWNPDARYSEHFLQEAKLL [GLT8D2] | 2.49 ± 0.17 | 2.79 ± 0.4 |  | 
73 | LMDYIGINLATMNSCINPIALYFV [EDNRA] |  | 3.08 ± 0.24 |  | 
74 | CPCCFGRDCLVLNQGYLSEAGASL [PI4K2A] | 2.44 ± 0.2 | 2.62 ± 0.49 |  | 
75 | LPHGVNFQDAIFPDTQENRRMFSS [CCDC3] | 3.91 ± 0.18 | 3.92 ± 0.097 |  | 
76 | KQPDLTMVRKIGCYAAMKKKIYAM [GAN] | 2.28 ± 0.45 | 2.21 ± 0.14 |  | 
77 | PSTTPPAHSSSNTIRSGISPNLNV [SASS6] | 4.29 ± 0.33 | 4.44 ± 0.28 |  | 
78 | CVLYACFILGRLCVPVFANMSREP [SOAT2] | 3 ± 0.36 | 3.31 ± 0.21 |  | 
79 | RMGATMAAINSIYSNTDANILFYV [GLT8D2] | 2.63 ± 0.59 | 3.14 ± 1.5 |  | 
80 | MEALAAETNLLLAQKQRLERALDA [TEKT4] | 4.13 ± 0.4 | 4.13 ± 0.38 |  | 
81 | DLQNLLGFTPEELHAILGVQPDTE [ETS2] | 3.25 ± 0.21 | 3.45 ± 0.29 |  | 
82 | GGDLEEQQHAEGSPEPGTPAAPTP [DNAAF3] | 5.61 ± 0.26 | 5.54 ± 0.31 |  | 
83 | DSAVENLLLLSKAKLVPSEREASP [IKZF1] | 4.15 ± 0.23 | 4.59 ± 0.14 |  | 
84 | TASLLLCPGGLDHKLNLRGKAWG [TIAF1] |  |  | 2.98 ± 0.22 | 2.59 ± 0.67
85 | KRTAQAIEPYITNFFNQVLMLGKT [PDS5B] | 1.95 ± 0.24 | 2.29 ± 0.085 |  | 
86 | GMDLNLEAEALAGTGLVLDEQLNE [HDAC6] | 5.4 ± 0.44 | 5.33 ± 0.24 |  | 
87 | NMSKEDAMVEFVKLLNRCCHLFST [ACBD3] | 2.24 ± 0.16 | 2.29 ± 0.39 |  | 
88 | SNFETYPENDWDTAAPVPQKDLEI [PRKX] | 5.03 ± 0.12 | 5.15 ± 0.2 |  | 
89 | LKAHAEEKPPSGTKEKKHQCDHCE [PLAGL1] | 5.38 ± 0.22 | 5.46 ± 0.098 |  | 
